This passage reports sensitivity of the test strip (lowest positive concentration) results from patent US20210301295A1.

In this test the target is 6×His tag-AVI tag-DPP4 fusion protein, site-directed biotinylated and labeled with color latex throu (human), P27487. Particulars: remark: other sources report otherwise.

B1: Recombinant S1 protein of MERS-CoV, K9N5Q8 18-725 (ligand)
chain: YVDVGPDSVKSACIEVDIQQTFFDKTWPRPIDVSKADGIIYPQGRTYSNITITYQGLFPYQGDHGDMYVYSAGHATGTTPQKLFVANYSQDVKQFANGFVVRIGAAANSTGTVIISPSTSATIRKIYPAFMLGSSVGNFSDGKMGRFFNHTLVLLPDGCGTLLRAFYCILEPRSGNHCPAGNSYTSFATYHTPATDCSDGNYNRNASLNSFKEYFNLRNCTFMYTYNITEDEILEWFGITQTAQGVHLFSSRYVDLYGGNMFQFATLPVYDTIKYYSIIPHSIRSIQSDRKAWAAFYVYKLQPLTFLLDFSVDGYIRRAIDCGFNDLSQLHCSYESFDVESGVYSVSSFEAKPSGSVVEQAEGVECDFSPLLSGTPPQVYNFKRLVFTNCNYNLTKLLSLFSVNDFTCSQISPAAIASNCYSSLILDYFSYPLSMKSDLSVSSAGPISQFNYKQSFSNPTCLILATVPHNLTTITKPLKYSYINKCSRFLSDDRTEVPQLVNANQYSPCVSIVPSTVWEDGDYYRKQLSPLEGGGWLVASGSTVAMTEQLQMGFGITVQYGTDTNSVCPKLEFANDTKIASQLGNCVEYSLYGVSGRGVFQNCTAVGVRQQRFVYDAYQNLVGYYSDDGNYYCLRACVSVPVSVIYDKETKTHATLFGSVACEHISSTMSQYSRSTRSMLKRRDSTYGPLQTPVGCVLGLVNSSLFVE
In turn, B1 registered a sensitivity of the test strip (lowest positive concentration) of 10 nM.
